Data set [1] has as its target T1, Human VPAC1 Receptor (Homo sapiens, UniProt P32241).
T1 construct: expressed in transfected cells
T1 sequence (P32241 31-457): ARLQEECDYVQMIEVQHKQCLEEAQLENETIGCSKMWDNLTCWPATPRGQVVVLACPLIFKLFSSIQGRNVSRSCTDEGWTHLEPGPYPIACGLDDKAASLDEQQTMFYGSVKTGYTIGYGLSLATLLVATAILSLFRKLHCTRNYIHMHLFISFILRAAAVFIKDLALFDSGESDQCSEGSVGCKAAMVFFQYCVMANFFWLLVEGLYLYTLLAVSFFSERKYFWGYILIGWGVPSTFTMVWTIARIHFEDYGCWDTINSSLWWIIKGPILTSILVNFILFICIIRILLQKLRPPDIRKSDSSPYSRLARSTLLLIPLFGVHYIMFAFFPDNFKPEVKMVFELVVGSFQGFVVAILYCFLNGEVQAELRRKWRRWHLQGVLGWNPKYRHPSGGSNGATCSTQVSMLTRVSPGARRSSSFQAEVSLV
The data set is described as follows: Filter binding assay, 125I-labeled VIP, membranes of cells transiently transfected with human VPAC1. As to conditions: 125I-labeled VIP tracer.

Data set [2] addresses T2, Human PAC1 Receptor (Homo sapiens, UniProt P41586).
T2 construct: expressed in transfected cells
T2 sequence (P41586 21-468): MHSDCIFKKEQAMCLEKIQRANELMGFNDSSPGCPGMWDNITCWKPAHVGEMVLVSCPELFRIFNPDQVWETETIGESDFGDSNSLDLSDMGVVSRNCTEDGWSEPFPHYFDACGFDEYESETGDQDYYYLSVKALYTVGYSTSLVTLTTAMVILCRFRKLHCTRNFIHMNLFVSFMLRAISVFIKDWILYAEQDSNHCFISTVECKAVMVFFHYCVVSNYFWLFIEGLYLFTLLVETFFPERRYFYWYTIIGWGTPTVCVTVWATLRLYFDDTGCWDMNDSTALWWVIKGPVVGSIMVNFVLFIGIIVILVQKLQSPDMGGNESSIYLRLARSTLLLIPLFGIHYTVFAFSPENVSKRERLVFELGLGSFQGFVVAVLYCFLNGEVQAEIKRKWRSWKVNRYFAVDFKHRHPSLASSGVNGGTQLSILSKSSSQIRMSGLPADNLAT
The data set is described as follows: Filter binding assay, 125I-labeled PACAP-27, membranes of cells transiently transfected with human PAC1. As to conditions: 125I-labeled PACAP-27 tracer. The protocol:
For this assay, the solutions and equipment include:
Presoak solution: 0.5% Polyethyleneamine in Aqua dest
Buffer for flushing filter plates: 25 mM HEPES pH 7.4
Blocking buffer: 25 mM HEPES pH 7.4; 0.2% protease free BSA
Assay buffer: 25 mM HEPES pH 7.4; 0.5% protease free BSA
Dilution and assay plate: PS-Microplate, U form
Filtration Plate Multiscreen FB Opaque Plate; […] Type B Glasfiber filter
In order to prepare the filter plates, the presoak solution is aspirated by vacuum filtration. The plates are flushed twice with 200 μL flush buffer. 200 μL blocking buffer is added to the filter plate. The filter plate is then incubated with 200 μL presoak solution for 1 hour at room temperature.
The assay plate is filled with 25 μL assay buffer, 25 μL membranes (2.5 μg) suspended in assay buffer, 25 μL agonist in assay buffer, and 25 μL tracer (about 40000 cpm) in assay buffer. The filled plate is incubated for 1 hour with shaking.
The transfer from assay plate to filter plate is conducted. The blocking buffer is aspirated by vacuum filtration and washed two times with flush buffer. 90 μL is transferred from the assay plate to the filter plate. The 90 μL transferred from assay plate is aspirated and washed three times with 200 μL flush buffer. The plastic support is removed. It is dried for 1 hour at 60° C. 30 μL Microscint is added. The count is performed.

For data set [3], the system named is Normal Wistar rats. The data set is described as follows: Intravenous glucose tolerance test (IVGTT). It is filed as in vivo, rat. Conditions: for insulin response to the i.v. glucose challenge: FIG. 1, animals treated 24 h prior to the glucose injection, versus vehicle-treated animals. The protocol: Intravenous glucose tolerance test (IVGTT): Normal Wistar rats are fasted overnight and are anesthetized prior to the experiment. A blood sampling catheter is inserted into the rats. The agonist is given subcutaneously, normally 24 h prior to the glucose challenge. Blood samples are taken from the carotid artery. A blood sample is drawn immediately prior to the injection of glucose along with the agonist. After the initial blood sample, glucose mixed is injected intravenously (i.v.). A glucose challenge of 0.5 g/kg body weight is given, injecting a total of 1.5 mL vehicle with glucose and agonist per kg body weight. The peptide concentrations are varied to produce the desired dose in μg/kg. Blood samples are drawn at 2, 4, 6 and 10 minutes after giving glucose. The control group of animals receives the same vehicle along with glucose, but with no agonist added. In some instances, 20 and 30 minute post-glucose blood samples were drawn. Aprotinin is added to the blood sample (250-500 kIU/ml blood). The plasma is then analyzed for glucose and insulin using standard methodologies.
The assay uses a formulated and calibrated peptide stock in PBS. Normally, this stock is a prediluted 100 μM stock. However, a more concentrated stock with approximately 1 mg agonist per mL is used. The specific concentration is always known. Variability in the maximal response is mostly due to variability in the vehicle dose.

Data set [4] in a line: Pharmacokinetic profiles of PEGylated peptides in Fisher 344 rats. It is filed as in vivo, rat. As to conditions: 100 μg agonist/kg, plasma RIA, mean N = 3. The gist of the method:
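Healthy rats (n=3/group) received 100 μg agonist/kg in PBS, dose based on peptide content; route not given. Plasma sampled 3–168 h post-dose, peptide quantified by N-terminal-directed RIA, PK parameters derived by model-independent analysis.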

The nature of data set [5]: Rat serum stability study (DiscoveRx cAMP read-out on CHO-VPAC2 cells). As to conditions: EC50, 4° C./EC50, 37° C., values >100% may represent release of intact peptide from the PEG conjugate; for 24 h stab (%): 24 h in rat serum at 37° C.; for 72 h stab (%): 72 h in rat serum at 37° C.
[6] abbreviates: AUC insulin, 0-10 min after glucose, 24 h between glucose & compound, Wistar rats.

This is an account of results in patent publication US7897573B2, “Selective VPAC2 receptor peptide agonists” (priority 2005, dated 2011).

Where no end group is shown, it is not given here.

A word on the IC50: it is the concentration that inhibits the measured activity by half. The term Cmax denotes the highest concentration seen after dosing. The term Tmax denotes the time at which the peak concentration occurs. For “C6-HSDAVFTEQY(OMe)TOrnLRAibQLAAbuAibOrnyLQAibIOrnOrnGGPSSGAPPPC(PEG30K)C(PEG30K)-NH2 (HSDAVFTEQYTXLRXQLAXXXYLQXIXXGGPSSGAPPPCC; not fully specified (some residues, N-terminus, C-terminus); printed as C6-HSDAVFTEQY(OMe)TOrnLRAibQLAAbuAibOrnyLQAibIOrnOrnGGPSSGAPPPC(PEG30K)C(PEG30K)-NH2; cysteine pairing not given here) [Agonist P570]”, the concentration for half-maximal inhibition (IC50) in data set [1] was greater than 25000 nM. The same substance yielded an IC50 in data set [2] greater than 25000 nM. For the same substance, the “% increase AUC: Dose = 0.1 mg/kg” value in data set [3] (setting [6]) worked out at 36%. Also, in data set [4], the AUC0-last came to 3891 ng·h/mL, the Cl/F was found to be 0.417 mL/min/kg, the Cmax came to 71 ng/mL and the Tmax stood at 20 h. Besides, the T½ in data set [4] came out at 25 h.
As to “C6-HSDAVFTEQY(OMe)TOrnLRAibQLAAbuAibOrnyAibQSIOrnOrnGGPSSGAPPPC(PEG30K)C(PEG30K)-NH2 (HSDAVFTEQYTXLRXQLAXXXYXQSIXXGGPSSGAPPPCC; not fully specified (some residues, N-terminus, C-terminus); printed as C6-HSDAVFTEQY(OMe)TOrnLRAibQLAAbuAibOrnyAibQSIOrnOrnGGPSSGAPPPC(PEG30K)C(PEG30K)-NH2; cysteine pairing not given here) [Agonist P602]”, the 50% inhibitory concentration (IC50) in data set [1] and in data set [2] was greater than 25000 nM throughout. Besides, the “% increase AUC: Dose = 0.09 mg/kg” value in data set [3] (AUC insulin, 0-10 min after glucose, 0.09 mg/kg, 24 h between glucose & compound, Wistar rats) is 73%. In addition, the “% increase AUC: Dose = 0.3 mg/kg” value in data set [3] (setting [6]) was found to be 198%. Moreover, the “24 h stab (%)” value in data set [5] is 573%.
Consider “C6-HSDAVFTEQY(OMe)TOrnLRAibQVAAAibOrnYLQSIOrnC(PEG20K)OrnGGPSSGAPPPC(PEG20K)-NH2 (HSDAVFTEQYTXLRXQVAAXXYLQSIXCXGGPSSGAPPPC; C6 acyl, two PEG20K, C-terminal amide; Synthetic sequence PEGylated VPAC2 receptor agonist) [Agonist P505]”, for which the 50% inhibitory concentration (IC50) in data set [1] was greater than 25000 nM. Also, in data set [2], the 50% inhibitory concentration (IC50) was greater than 25000 nM. In data set [3] (setting [6]), the “% increase AUC: Dose = 0.1 mg/kg” value is given as 12% and the “% increase AUC: Dose = 0.3 mg/kg” value came to 74%. Moreover, the “insulin response to the i.v. glucose challenge” value in data set [3] is recorded as “enhancement of the insulin response”. Moreover, in data set [4], the AUC0-last came out at 7006 ng·h/mL, the Cl/F was 0.217 mL/min/kg, the maximum concentration (Cmax) came out at 160 ng/mL and the Tmax is listed as 12 h. The T½ in data set [4] was determined as 22 h. Moreover, in data set [5], the “24 h stab (%)” value was determined as 133% and the “72 h stab (%)” value came out at 161%.
On to “C6-HSDAVFTEQY(OMe)TOrnLRAibQLAAbuAibOrnYAibQAibIOrnOrnGGPSSGAPPPC(PEG20K)C(PEG20K)-NH2 (HSDAVFTEQYTXLRXQLAXXXYXQXIXXGGPSSGAPPPCC; C6 acyl, two PEG20K, C-terminal amide; Synthetic sequence PEGylated VPAC2 receptor agonist) [Agonist P525]”, for which the IC50 in data set [1] is greater than 25000 nM. In addition, the IC50 in data set [2] was greater than 25000 nM. Moreover, in data set [3] (setting [6]), the “% increase AUC: Dose = 0.1 mg/kg” value was 72% and the “% increase AUC: Dose = 0.3 mg/kg” value stood at 208%. In addition, the “insulin response to the i.v. glucose challenge” value in data set [3] is “enhancement of the insulin response”. Besides, in data set [4], the AUC0-last came out at 4740 ng·h/mL, the Cl/F turned out to be 0.333 mL/min/kg, the maximum concentration (Cmax) is 133 ng/mL and the Tmax is 16 h. The same substance had a T½ in data set [4] of 22 h. Also, in data set [5], the “24 h stab (%)” value worked out at 298% and the “72 h stab (%)” value was 353%.
